B1: VHH-CA125-4H10 (VHH, from another filing)
VHH: ESGGGLVQPGGSLRLSCAASEFTLEHYAIGWFRQAPGKEREGVGCISSSQENTYVEDSAKGRFTISRDNVKNTVYLQMNSLKPEDTAVYYCAARRFGLCVISPGYFEVWGQGT
B2: VHH-CA125-2H7 (VHH, from another filing)
VHH: ESGGGLVQAGGSLRLSCERSDAPHSPYTMGWFRQAPGKDREFVATITWSGGTTLYADSVKGRFTISRGIAKNTAYLQMNTLKPEDTAVYYCAVGLGGGAYREDHQYDYWGQGT
B3: VHH-CA125-4C1 (VHH, from another filing)
VHH: ESGGGLVQAGGSLRLSCAASGNTFNINAMGWYRQAPGKQRELVATITSGGSTNYADSVKGRFTISRDNAKNTVFLQMNSLKPEDTAVYYCNAVQTRLPNSPDRYEYDYWGQGT
B4: 抗CA125双特异性纳米抗体 4A4-(G4S)4-6C1 (bispecific antibody)
chain: QVQLQESGGGLVQAGTSLTLSCAASERTFSAYDMNWYRQAPGKERELVAAISWRGPITYVADSVKGRFTISRDNAKNTVYLQMNSLKPEDTAIYYCNAEPGPGYVGSYALSYWGQGTQVTVSSGGGGSGGGGSGGGGSGGGGSQVQLQESGGGLVQAGGSLRLSCAASGSMFSINAMRWYRQAPGKQRELVAAITSGGSTNYADSVKGRFTISRDNAKNTMYLQMNSLKPEDTAVYYCNAAQTRLPNSADRYEYDYWGQGTQVTVSS
B5: 抗CA125纳米抗体4A4 (VHH)
VHH: QVQLQESGGGLVQAGTSLTLSCAASERTFSAYDMNWYRQAPGKERELVAAISWRGPITYVADSVKGRFTISRDNAKNTVYLQMNSLKPEDTAIYYCNAEPGPGYVGSYALSYWGQGTQVTVSS
B6: 抗CA125纳米抗体6C1 (VHH)
VHH: QVQLQESGGGLVQAGGSLRLSCAASGSMFSINAMRWYRQAPGKQRELVAAITSGGSTNYADSVKGRFTISRDNAKNTMYLQMNSLKPEDTAVYYCNAAQTRLPNSADRYEYDYWGQGTQVTVSS

How the values were obtained:
[1] = target: CA125抗原 (Cancer Antigen 125) (human) (UniProt Q8WXI7); test: SPR, Biacore, comparator nanobody listed in Table 1
[2] = target: CA125抗原 (Cancer Antigen 125) (human) (UniProt Q8WXI7); test: SPR, Biacore T100, antigen coupled to chip, bispecific as analyte, 1:1 fit
[3] = target: CA125抗原 (Cancer Antigen 125) (human) (UniProt Q8WXI7); test: SPR, Biacore T100, antigen on chip, 1:1 fit (repeats Table 1)
[4] = target: CA125抗原 (Cancer Antigen 125) (human) (UniProt Q8WXI7); test: SPR, Biacore T100, antigen coupled to chip, nanobody as analyte, 1:1 fit

Binder	Kd [1]	Kd [3]	Kd [4]	further results
B1	0.285 nM			
B2	0.718 nM			
B3	0.635 nM			
B4				Kd [2]: 0.0768 nM
B5		3.59 nM	3.59 nM	
B6		0.198 nM	0.198 nM	

From patent publication CN114106184A
